Experimental data from article PMC6326814.

Tests used:
[1] = target: BbvCI R2 subunit, wild type (Geobacillus brevis); test: SEC; purified enzyme at pH 7.5 (pH of the storage buffer); sample with 1:1 subunits by Supplementary Figure S1
[2] = target: BbvCI R2 subunit, wild type (Geobacillus brevis); test: crystal structure; crystal form 1, grown from the purified enzyme with dsDNA oligos against 0.8 M ammonium sulfate, 100 mM sodium acetate pH 4.5, 2 mM CaCl2; only R2 in the crystal

| stoichiometry N [1] | stoichiometry N [2] | Substance |
| --- | --- | --- |
| 1 R1:R2 | – | BbvCI R1 subunit, wild type (enzyme) |
| – | 2 | BbvCI R2 subunit, wild type (enzyme) |
